In publication PMC6395754:

Target: profilin1 (PFN1) (UniProt P07737)
Assay: GST-PFN1 pull-down from cell lysate
Details: reference: wild type

Row | binding against the reference (sites S665) | binding against the reference (sites S629) | Substance
1 | stronger | – | DIAPH1 (from UniProt O60610) S665A
2 | – | stronger | DIAPH1 (from UniProt O60610) S629A
